From the supplement of paper PMC10065799, “High-throughput profiling of sequence recognition by tyrosine kinases and SH2 domains using bacterial peptide display” (eLife, 2023)

Columns and labels:
Grb2 SH2 = Grb2 SH2 (UniProt P62993); test: SH2 binding enrichment of the phosphorylated peptide, bacterial display (enrichment ratio); higher = better substrate or ligand; peptides without Tyr show the background
SHP2-C SH2 = test: as above
c-Src SH2 = test: as above
Fyn = Fyn (UniProt P06241); test: phosphorylation enrichment, bacterial display (enrichment ratio); higher = better substrate or ligand; peptides without Tyr show the background
FGFR1 = FGFR1 (UniProt P11362); test: as above
EPHB2 = EPHB2 (UniProt P29323); test: as above
Fer (mouse) = test: as above
Fes = Fes (UniProt P07332); test: as above
Hck = Hck (UniProt P08631); test: as above
MERTK = MERTK (UniProt Q12866); test: as above
c-Abl (mouse) = test: as above
FGFR3 = FGFR3 (UniProt P22607); test: as above
EPHB1 = EPHB1 (UniProt P54762); test: as above
c-Src = test: as above
AncSZ = test: as above
Jak2 = Jak2 (UniProt O60674); test: as above
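For SH2 binding enrichment of the phosphorylated peptide, bacterial display in this document: peptide library displayed on the E. coli surface as eCPX fusions, selected cells deep-sequenced, score is each peptide's frequency after selection divided by its frequency in the input.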
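For phosphorylation enrichment, bacterial display in this document: 11-residue human phosphosite peptides and single-mutation variants displayed on the E. coli surface, counted by deep sequencing, each peptide's frequency after selection divided by its frequency in the unselected input library; frequency after pTyr selection over input frequency; kinase dosed for 20-30% of maximal phosphorylation in three min.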

Chain of Jak2 (O60674 whole entry, looked up, the tested form may be a part): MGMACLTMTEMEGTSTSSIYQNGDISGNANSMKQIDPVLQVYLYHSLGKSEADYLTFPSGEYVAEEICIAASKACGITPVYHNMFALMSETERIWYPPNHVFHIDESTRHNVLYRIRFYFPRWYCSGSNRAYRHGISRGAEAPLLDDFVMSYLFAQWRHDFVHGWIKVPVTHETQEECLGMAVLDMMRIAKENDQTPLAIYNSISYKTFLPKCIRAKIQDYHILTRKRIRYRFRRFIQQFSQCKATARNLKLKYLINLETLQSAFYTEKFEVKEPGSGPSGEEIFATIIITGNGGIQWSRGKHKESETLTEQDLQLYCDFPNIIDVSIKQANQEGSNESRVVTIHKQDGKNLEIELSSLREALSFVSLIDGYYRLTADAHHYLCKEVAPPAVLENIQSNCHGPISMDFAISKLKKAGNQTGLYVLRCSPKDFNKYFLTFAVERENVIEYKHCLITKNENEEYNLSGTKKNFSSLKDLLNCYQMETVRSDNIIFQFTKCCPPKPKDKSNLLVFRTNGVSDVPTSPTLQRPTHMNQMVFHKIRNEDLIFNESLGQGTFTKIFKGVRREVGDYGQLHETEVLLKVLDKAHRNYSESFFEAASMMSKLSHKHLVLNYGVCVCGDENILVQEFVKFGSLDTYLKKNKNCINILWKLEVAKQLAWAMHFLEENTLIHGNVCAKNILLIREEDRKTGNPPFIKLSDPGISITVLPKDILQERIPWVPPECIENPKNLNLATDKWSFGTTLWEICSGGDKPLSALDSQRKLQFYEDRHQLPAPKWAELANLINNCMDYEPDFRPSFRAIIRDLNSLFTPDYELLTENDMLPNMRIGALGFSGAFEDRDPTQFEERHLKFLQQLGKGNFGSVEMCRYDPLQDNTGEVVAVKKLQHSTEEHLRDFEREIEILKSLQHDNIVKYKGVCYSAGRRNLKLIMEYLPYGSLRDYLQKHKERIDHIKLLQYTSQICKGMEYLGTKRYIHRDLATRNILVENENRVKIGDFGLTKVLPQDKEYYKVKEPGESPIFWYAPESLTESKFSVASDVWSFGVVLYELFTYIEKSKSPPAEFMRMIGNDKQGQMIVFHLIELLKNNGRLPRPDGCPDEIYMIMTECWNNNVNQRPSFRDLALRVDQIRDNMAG
Chain of Hck (P08631 whole entry, looked up): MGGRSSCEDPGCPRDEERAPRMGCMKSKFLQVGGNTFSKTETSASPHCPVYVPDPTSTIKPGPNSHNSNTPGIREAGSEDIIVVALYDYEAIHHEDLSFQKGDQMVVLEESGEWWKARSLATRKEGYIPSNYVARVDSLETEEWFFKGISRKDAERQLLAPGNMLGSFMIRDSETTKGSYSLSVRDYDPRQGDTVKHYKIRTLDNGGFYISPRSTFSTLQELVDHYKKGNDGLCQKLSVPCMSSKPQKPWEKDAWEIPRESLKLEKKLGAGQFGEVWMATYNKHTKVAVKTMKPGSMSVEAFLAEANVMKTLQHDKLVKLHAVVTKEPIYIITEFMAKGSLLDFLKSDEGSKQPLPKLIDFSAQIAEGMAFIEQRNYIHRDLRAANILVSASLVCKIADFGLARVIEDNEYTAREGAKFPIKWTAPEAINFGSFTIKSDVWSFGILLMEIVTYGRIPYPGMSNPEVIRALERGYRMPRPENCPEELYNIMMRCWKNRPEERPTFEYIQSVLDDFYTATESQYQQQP
Chain of Fes (P07332 whole entry, looked up): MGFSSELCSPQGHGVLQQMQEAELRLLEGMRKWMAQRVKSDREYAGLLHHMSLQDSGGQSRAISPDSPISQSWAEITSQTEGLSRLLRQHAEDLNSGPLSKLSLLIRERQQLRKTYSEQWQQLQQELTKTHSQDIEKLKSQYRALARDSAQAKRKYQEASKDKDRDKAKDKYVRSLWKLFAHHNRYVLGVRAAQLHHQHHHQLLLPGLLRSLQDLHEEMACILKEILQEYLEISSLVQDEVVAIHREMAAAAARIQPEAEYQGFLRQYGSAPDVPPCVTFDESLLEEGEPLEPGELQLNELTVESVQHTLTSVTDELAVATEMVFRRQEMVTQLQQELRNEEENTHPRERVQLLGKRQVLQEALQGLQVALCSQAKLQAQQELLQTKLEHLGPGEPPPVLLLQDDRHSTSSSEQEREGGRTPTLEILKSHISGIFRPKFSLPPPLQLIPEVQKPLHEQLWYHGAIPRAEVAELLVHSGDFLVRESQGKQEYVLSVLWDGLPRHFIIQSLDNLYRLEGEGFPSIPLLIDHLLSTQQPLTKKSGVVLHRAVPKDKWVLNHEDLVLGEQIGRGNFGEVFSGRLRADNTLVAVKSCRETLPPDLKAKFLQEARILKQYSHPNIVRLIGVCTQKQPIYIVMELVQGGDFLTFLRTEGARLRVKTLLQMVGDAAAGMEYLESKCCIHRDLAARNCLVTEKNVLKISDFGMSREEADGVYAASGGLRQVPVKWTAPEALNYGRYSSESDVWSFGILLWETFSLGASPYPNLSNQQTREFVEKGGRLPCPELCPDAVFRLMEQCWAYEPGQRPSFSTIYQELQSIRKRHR
Chain of MERTK (Q12866 whole entry, looked up): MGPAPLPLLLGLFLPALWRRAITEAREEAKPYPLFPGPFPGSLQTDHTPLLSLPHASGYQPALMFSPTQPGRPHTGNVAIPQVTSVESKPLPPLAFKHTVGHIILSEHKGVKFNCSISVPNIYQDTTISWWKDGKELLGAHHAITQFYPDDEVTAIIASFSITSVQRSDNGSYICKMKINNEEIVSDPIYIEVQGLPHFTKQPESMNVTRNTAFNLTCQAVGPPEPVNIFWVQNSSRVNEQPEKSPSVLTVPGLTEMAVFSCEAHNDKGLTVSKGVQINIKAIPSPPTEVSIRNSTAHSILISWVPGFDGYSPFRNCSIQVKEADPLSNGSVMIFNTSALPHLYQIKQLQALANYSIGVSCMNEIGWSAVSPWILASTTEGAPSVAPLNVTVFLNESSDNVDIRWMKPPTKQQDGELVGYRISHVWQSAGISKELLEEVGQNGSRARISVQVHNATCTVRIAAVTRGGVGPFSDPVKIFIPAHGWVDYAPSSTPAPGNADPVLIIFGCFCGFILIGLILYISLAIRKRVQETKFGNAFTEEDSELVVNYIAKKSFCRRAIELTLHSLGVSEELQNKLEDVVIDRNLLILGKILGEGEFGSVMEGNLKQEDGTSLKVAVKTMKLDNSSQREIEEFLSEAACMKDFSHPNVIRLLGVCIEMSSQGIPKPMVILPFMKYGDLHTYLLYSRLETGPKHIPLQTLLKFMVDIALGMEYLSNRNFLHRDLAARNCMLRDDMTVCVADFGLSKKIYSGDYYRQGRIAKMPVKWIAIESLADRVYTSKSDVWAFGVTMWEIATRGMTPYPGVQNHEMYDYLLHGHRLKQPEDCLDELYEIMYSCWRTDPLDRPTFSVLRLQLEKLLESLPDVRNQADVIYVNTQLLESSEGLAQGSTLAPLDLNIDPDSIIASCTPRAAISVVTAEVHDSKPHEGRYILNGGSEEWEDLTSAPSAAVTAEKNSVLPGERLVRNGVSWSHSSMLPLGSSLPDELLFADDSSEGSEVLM
Chain of FGFR1 (P11362 whole entry, looked up): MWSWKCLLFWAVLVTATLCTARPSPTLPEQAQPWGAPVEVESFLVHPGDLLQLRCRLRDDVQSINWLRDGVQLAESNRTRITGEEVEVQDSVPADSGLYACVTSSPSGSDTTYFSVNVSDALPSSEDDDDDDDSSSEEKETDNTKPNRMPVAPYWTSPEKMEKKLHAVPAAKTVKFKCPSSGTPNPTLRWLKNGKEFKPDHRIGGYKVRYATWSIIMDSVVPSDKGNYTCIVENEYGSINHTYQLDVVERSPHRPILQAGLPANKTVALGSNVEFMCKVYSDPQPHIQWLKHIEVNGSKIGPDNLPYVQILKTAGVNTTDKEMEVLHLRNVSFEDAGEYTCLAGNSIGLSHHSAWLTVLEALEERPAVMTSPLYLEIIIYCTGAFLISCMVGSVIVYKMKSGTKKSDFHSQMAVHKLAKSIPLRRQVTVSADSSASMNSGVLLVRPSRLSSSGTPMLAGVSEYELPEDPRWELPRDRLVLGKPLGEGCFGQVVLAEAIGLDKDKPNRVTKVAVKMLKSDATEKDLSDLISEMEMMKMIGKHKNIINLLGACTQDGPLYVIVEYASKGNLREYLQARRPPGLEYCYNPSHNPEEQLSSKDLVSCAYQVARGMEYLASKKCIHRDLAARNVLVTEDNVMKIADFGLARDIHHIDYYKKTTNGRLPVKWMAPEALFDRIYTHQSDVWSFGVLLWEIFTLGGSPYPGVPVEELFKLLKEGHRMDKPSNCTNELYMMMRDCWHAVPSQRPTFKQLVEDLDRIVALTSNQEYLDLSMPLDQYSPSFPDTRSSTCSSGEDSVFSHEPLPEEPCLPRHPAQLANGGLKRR
Chain of Fyn (P06241 whole entry, looked up): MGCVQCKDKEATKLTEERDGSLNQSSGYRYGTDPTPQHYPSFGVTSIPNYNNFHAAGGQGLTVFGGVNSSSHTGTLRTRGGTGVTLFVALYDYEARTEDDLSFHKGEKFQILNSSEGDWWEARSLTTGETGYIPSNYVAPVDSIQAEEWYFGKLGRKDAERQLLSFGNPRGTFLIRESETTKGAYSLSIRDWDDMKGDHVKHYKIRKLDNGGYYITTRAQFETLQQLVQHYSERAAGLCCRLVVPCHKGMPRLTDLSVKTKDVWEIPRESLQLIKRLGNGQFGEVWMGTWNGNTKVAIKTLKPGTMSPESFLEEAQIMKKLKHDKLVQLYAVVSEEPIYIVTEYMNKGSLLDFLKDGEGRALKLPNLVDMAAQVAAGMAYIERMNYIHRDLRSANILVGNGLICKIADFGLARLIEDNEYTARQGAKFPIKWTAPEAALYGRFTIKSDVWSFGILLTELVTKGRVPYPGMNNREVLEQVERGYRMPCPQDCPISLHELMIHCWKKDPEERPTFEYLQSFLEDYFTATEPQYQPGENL

Row | SH2 binding enrichment (Grb2 SH2) | SH2 binding enrichment (SHP2-C SH2) | SH2 binding enrichment (c-Src SH2) | Sequence | phosphorylation enrichment (Fyn) | phosphorylation enrichment (FGFR1) | phosphorylation enrichment (EPHB2) | phosphorylation enrichment (Fer (mouse)) | phosphorylation enrichment (Fes) | phosphorylation enrichment (Hck) | phosphorylation enrichment (MERTK) | phosphorylation enrichment (c-Abl (mouse)) | phosphorylation enrichment (FGFR3) | phosphorylation enrichment (EPHB1) | phosphorylation enrichment (c-Src) | phosphorylation enrichment (AncSZ) | phosphorylation enrichment (Jak2)
1 | 1.05 | 40.4 | 2.64 | TNLVPYTRIHF [TUBA1A_Y262_P263T] | 0.45 | 0.468 | 0.423 | 0.385 | 0.829 | 0.487 | 0.374 | 0.469 | 0.506 | 0.455 | 0.441 | 0.765 | 0.682
2 | 0.819 | 0.99 | 0.459 | TNQVIYLNPPI [DYNC1H1_Y970] | 0.62 | 3.51 | 4.73 | 0.473 | 0.77 | 1.45 | 3.71 | 13.9 | 2.94 | 7.69 | 0.743 | 0.849 | 0.706
3 | 0.9 | 1.09 | 0.591 | TNYRLYLRSLE [MTM1_Y71] | 0.552 | 0.595 | 0.556 | 0.524 | 1.3 | 0.555 | 0.554 | 1.31 | 0.776 | 0.666 | 0.504 | 1.11 | 1.22
4 | 0.91 | 0.82 | 0.494 | TQPSPYAVFLF [RPGRIP1_Y823_R827L_YF] | 6.88 | 1.28 | 1.28 | 7.3 | 0.915 | 3.69 | 7.59 | 15.1 | 0.942 | 2.12 | 5.76 | 0.826 | 0.926
5 | 1.01 | 0.821 | 0.629 | TQTPPYVKKHP [LARP1B_Y457] | 0.459 | 0.34 | 0.39 | 0.439 | 0.624 | 0.357 | 0.466 | 0.514 | 0.521 | 0.458 | 0.488 | 0.677 | 0.593
6 | 0.977 | 1.05 | 10.4 | TRSYDYMEGED [FGF7_Y58_G62E] | 0.607 | 5.52 | 0.634 | 0.645 | 1.47 | 0.549 | 0.591 | 0.919 | 0.869 | 0.711 | 0.574 | 1.41 | 1.51
7 | 1.09 | 0.872 | 0.815 | TRSYKCLLLSM [NF1_Y491_Y491C] | 0.425 | 0.375 | 0.487 | 0.402 | 0.94 | 0.441 | 0.434 | 0.637 | 0.619 | 0.486 | 0.401 | 0.979 | 0.784
8 | 0.939 | 0.635 | 0.732 | TSYSGYRCHRH [NKAPL_Y94_Y96C] | 0.352 | 0.63 | 0.477 | 0.31 | 0.695 | 0.5 | 0.509 | 0.528 | 0.584 | 0.386 | 0.433 | 0.694 | 0.678
9 | 0.921 | 0.597 | 0.465 | TTTQAYRVDER [PRKN_Y391] | 0.482 | 0.446 | 0.439 | 0.479 | 0.758 | 0.446 | 0.404 | 0.714 | 0.512 | 0.473 | 0.389 | 0.709 | 0.57
10 | 0.757 | 0.914 | 0.567 | TVDASYCGGRG [ANTXR2_Y380_Y381C] | 0.383 | 0.496 | 0.516 | 0.402 | 0.695 | 0.436 | 0.452 | 0.465 | 0.437 | 0.393 | 0.351 | 0.558 | 0.558
11 | 1.05 | 1.16 | 0.713 | TVLEHYRRTHC [MYBPC3_Y1119] | 0.52 | 0.438 | 0.681 | 0.408 | 0.672 | 0.5 | 0.569 | 0.532 | 0.519 | 0.468 | 0.395 | 0.526 | 0.606
12 | 0.779 | 0.673 | 1.32 | TVLEPYADPFF [ZC3H18_Y367_YF] | 0.526 | 0.753 | 0.5 | 0.536 | 0.879 | 0.65 | 0.408 | 0.565 | 0.611 | 0.432 | 0.517 | 1.16 | 0.906
13 | 1.21 | 0.88 | 0.762 | TVSSDYLHPQY [CCPG1_Y569_F566S] | 0.365 | 0.528 | 0.531 | 0.442 | 0.681 | 0.407 | 0.315 | 0.521 | 0.54 | 0.43 | 0.355 | 1.28 | 0.536
14 | 0.636 | 0.354 | 0.38 | TWSRSYRSDRL [CRYBB1_Y131_S129R] | 0.453 | 0.607 | 0.51 | 0.452 | 0.715 | 0.614 | 0.518 | 0.586 | 0.494 | 0.445 | 0.545 | 0.676 | 0.778
15 | 0.881 | 0.882 | 0.48 | TYGVAYRAKDK [CDK11B_Y453_V452A] | 0.812 | 0.791 | 0.592 | 0.38 | 0.807 | 1.15 | 0.621 | 0.567 | 0.537 | 0.357 | 0.829 | 0.712 | 0.578
16 | 0.834 | 0.586 | 0.631 | TYQYKYPEGSS [TGM4_Y440_E437Q] | 0.567 | 0.425 | 0.56 | 0.509 | 0.905 | 0.455 | 0.429 | 0.691 | 0.63 | 0.548 | 0.494 | 0.85 | 0.743
